Data reported in publication PMC5383425, “Differential CLE peptide perception by plant receptors implicated from structural and functional analyses of TDIF-TDR interactions” (PLoS ONE, 2017).
Square brackets hold non-standard residues; d marks the D form. Ends that are not written are not given here. Hyp = O=C(O)[C@@H]1C[C@@H](O)CN1

Columns and labels:
[1] = target: T1, ecdTDR F279/F281 double alanine mutant (Arabidopsis thaliana, UniProt Q9FII5 30-642, F279 to alanine | F281 to alanine); assay: ITC
T1 sequence: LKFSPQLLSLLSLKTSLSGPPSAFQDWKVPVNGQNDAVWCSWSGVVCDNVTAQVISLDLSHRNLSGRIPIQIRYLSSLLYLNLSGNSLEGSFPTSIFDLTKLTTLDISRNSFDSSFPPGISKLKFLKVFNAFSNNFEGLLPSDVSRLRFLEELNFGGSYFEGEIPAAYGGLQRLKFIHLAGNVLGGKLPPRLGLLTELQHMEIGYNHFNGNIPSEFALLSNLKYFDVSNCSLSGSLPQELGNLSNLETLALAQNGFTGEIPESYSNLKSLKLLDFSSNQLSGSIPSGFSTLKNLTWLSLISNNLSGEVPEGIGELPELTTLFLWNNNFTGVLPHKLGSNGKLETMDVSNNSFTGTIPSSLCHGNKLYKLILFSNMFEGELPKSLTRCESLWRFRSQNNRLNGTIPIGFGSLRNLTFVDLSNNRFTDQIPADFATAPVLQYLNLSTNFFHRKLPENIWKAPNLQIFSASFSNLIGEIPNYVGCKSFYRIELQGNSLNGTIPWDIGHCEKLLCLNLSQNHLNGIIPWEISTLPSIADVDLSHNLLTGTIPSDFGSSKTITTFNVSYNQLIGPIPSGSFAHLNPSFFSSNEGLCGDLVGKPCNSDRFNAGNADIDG

[2] = target: T2, TDR-R421A/R423A double mutant (ecdTDR) (Arabidopsis thaliana, UniProt Q9FII5 30-642, R421A | R423A); assay: ITC
T2 sequence: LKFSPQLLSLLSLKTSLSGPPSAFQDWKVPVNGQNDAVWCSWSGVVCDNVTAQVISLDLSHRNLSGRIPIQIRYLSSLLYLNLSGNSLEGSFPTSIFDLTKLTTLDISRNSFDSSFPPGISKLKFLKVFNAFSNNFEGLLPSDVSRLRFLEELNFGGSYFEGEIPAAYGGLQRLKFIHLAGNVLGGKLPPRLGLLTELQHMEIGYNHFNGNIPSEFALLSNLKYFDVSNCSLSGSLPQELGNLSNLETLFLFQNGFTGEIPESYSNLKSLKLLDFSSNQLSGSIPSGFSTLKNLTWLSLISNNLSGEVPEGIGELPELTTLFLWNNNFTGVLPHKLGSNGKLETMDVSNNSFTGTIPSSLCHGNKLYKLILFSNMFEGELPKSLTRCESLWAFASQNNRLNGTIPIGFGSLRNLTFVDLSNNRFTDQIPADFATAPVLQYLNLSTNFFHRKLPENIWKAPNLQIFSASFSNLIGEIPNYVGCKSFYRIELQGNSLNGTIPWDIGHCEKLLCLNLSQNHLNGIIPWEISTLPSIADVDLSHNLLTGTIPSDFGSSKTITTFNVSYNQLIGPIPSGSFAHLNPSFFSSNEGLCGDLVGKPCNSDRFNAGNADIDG

B1: Tracheary Element Differentiation Inhibitory Factor (TDIF) peptide (peptide)
peptide: HEV[Hyp]SG[Hyp]NPISN
notes: TDIF, the 12-residue CLE peptide processed from CLE41 and CLE44 of A. thaliana; printed as HEV(Hyp)SG(Hyp)NPISN; numbers count on: the 12-residue peptide; CLE44 encodes the same peptide; also called wild type TDIF; wtTDIF; source: synthetic peptide (peptide 2.0)
- Kd [1]: 887 nM
- Kd [2]: 306 nM
